# Target: alpha-thrombin (Homo sapiens, UniProt P00734;P00734 328-363;364-622)
# Test: MST; potassium phosphate pH 7.5, 20 nM aptamer; EMSA: 10 mM sodium cacodylate pH 7.2, 100 mM KCl in D2O, incubation 25 C, 12% native gel in 1x TBE + 10 mM KCl at 10 C; MST: 10 mM Tris-HCl, 100 mM potassium ph
binder,measurement,value
"GGGTTGGGTGTGGGTTGGG (structured_DNA, alpha-deoxyguanosine at positions 1,12; tripeptide GLE conjugated at T4 (N3 position, equivalent of T3 in TBA)) [2GLE (analogue 2 - GLE tripeptide conjugate)]",Kd,2.7 nM
GGTTGGTGTGGTTGG (structured_DNA) [TBA (15-mer thrombin binding aptamer)],Kd,19.5 nM
